According to patent publication US20260210939A1, “MODIFIED OLFACTORY RECEPTORS” (GIVAUDAN SA, priority 2022, published 2026):

molecular target: T1, OR7D4 (Homo sapiens, UniProt Q8NG98, D296E/E302K/G299D); assay: CRE-luciferase assay, HEK cells expressing OR7D4 (wild-type / modified C-terminus); assay type: cell-based; settings: not given
T1 construct: Improved functional expression of modified OR-genes containing the truncated, optimized C-terminus; expressed in transfected cells
T1 sequence (Q8NG98 with tags, fused parts or gaps D296E/G299D/E302K): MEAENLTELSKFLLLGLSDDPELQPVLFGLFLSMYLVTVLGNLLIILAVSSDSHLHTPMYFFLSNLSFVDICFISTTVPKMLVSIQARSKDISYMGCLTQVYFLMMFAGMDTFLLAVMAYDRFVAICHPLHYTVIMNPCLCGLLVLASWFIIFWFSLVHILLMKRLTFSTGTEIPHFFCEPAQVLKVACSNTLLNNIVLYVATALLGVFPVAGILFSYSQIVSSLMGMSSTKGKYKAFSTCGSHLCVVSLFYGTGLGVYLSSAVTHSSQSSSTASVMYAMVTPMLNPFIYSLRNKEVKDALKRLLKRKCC
Excerpt: Random permutations of the general C-terminal sequence RN[KR][EDQ][VMIL][KR]KA[LIV][KRH][KR][LI][LIF][KRG][KR][KR]CC (SEQ ID NO: 822) linked to OR7D4 were generated based on degenerate oligonucleotides for the C-terminal domain. For this experiment, the MfeI/XhoI fragment from pcDNA3.1(+)-mmLucy-FLAG-rho-OR7D4 containing the CMV promoter and the OR coding sequence was used to replace the EcoRI/SalI fragment of pRDVCCB-CMV-dCas9-VPH-2A-Blast (Cellecta, Inc., Mountain View, USA). Complementary degenerate oligonucleotides were then used to replace the coding region of the C-terminal domain of […] (between Bsu36I and NotI). Random clones were selected, sequenced and tested for a correct open reading frame. A total of 55 clones were obtained with the correct open reading frame of […] and a permutation of the general sequence RN[KR][EDQ][VMIL][KR]KA[LIV][KRH][KR][LI][LIF][KRG][KR][KR]CC (SEQ ID NO: 822) as the C-terminal domain. All the different clones were compared to the wild-type sequence by the functional assay in HEK cells with the ligand Androstenone tested in a dose-response test.

| Compound | Comments on efficacy |
| --- | --- |
| C[C@]12CCC(=O)C[C@@H]1CC[C@@H]1[C@@H]2CC[C@]2(C)C=CC[C@@H]12 [Androstenone, reference compound] | 3-fold lower |

same assay, conditions: OR7D4 variant, 0.1 μM Androstenone

| Compound | Fold induction luciferase |
| --- | --- |
| SEQ ID NO: 264 (RNKDIKKAVKKLIKKKCC; source 1..18: note = C-terminal domain sequence) | 3.79 |
| SEQ ID NO: 285 (RNKELKKALRRLIGRRCC; source 1..18: note = C-terminal domain sequence) | 3.18 |
| SEQ ID NO: 288 (RNKEVRKALKKLFGKKCC; source 1..18: note = C-terminal domain sequence) | 17.84 |

same assay, conditions: OR7D4 variant, 1 μM Androstenone

| Compound | Fold induction luciferase |
| --- | --- |
| SEQ ID NO: 264 (RNKDIKKAVKKLIKKKCC; source 1..18: note = C-terminal domain sequence) | 23.26 |
| SEQ ID NO: 285 (RNKELKKALRRLIGRRCC; source 1..18: note = C-terminal domain sequence) | 22.10 |
| SEQ ID NO: 288 (RNKEVRKALKKLFGKKCC; source 1..18: note = C-terminal domain sequence) | 28.81 |

same assay, conditions: OR7D4 variant, Androstenone

| Compound | EC2 (concentration for 2-fold luciferase induction) | EC2 Fold-improvement vs. wild-type |
| --- | --- | --- |
| SEQ ID NO: 254 (RNREMRKALHRLLGKKCC; source 1..18: note = C-terminal domain sequence) | 0.011 µM | 156.27 |
| SEQ ID NO: 255 (RNREVKKAIHKLIGRKCC; source 1..18: note = C-terminal domain sequence) | 0.010 µM | 164.23 |
| SEQ ID NO: 256 (RNREVRKAVHRLFKRKCC; source 1..18: note = C-terminal domain sequence) | 0.004 µM | 385.42 |
| SEQ ID NO: 257 (RNKEMKKAIHKLFGKKCC; source 1..18: note = C-terminal domain sequence) | 0.010 µM | 172.96 |
| SEQ ID NO: 258 (RNRDVKKAVHKLFRRKCC; source 1..18: note = C-terminal domain sequence) | 0.011 µM | 152.59 |
| SEQ ID NO: 259 (RNRDMKKAVHKLFGKRCC; source 1..18: note = C-terminal domain sequence) | 0.020 µM | 84.30 |
| SEQ ID NO: 260 (RNKELRKALHKLLGRKCC; source 1..18: note = C-terminal domain sequence) | 0.043 µM | 39.74 |
| SEQ ID NO: 261 (RNRDVRKALRRILRRRCC; source 1..18: note = C-terminal domain sequence) | 0.004 µM | 427.69 |
| SEQ ID NO: 262 (RNKDVRKAVRKLIRRRCC; source 1..18: note = C-terminal domain sequence) | 0.010 µM | 165.32 |
| SEQ ID NO: 263 (RNRDVRKAVRRLFRKRCC; source 1..18: note = C-terminal domain sequence) | 0.006 µM | 304.87 |
| SEQ ID NO: 264 (RNKDIKKAVKKLIKKKCC; source 1..18: note = C-terminal domain sequence) | 0.048 µM | 36.01 |
| SEQ ID NO: 265 (RNRELRKAVRRLFKRRCC; source 1..18: note = C-terminal domain sequence) | 0.022 µM | 78.45 |
| SEQ ID NO: 266 (RNKELRKAVRKIIKKKCC; source 1..18: note = C-terminal domain sequence) | 0.041 µM | 41.85 |
| SEQ ID NO: 267 (RNRDVKKAVRRLFRRKCC; source 1..18: note = C-terminal domain sequence) | 0.006 µM | 266.97 |
| SEQ ID NO: 268 (RNREVRKALRRIIRKRCC; source 1..18: note = C-terminal domain sequence) | 0.003 µM | 545.04 |
| SEQ ID NO: 269 (RNKDIRKAVKKIFRRKCC; source 1..18: note = C-terminal domain sequence) | 0.026 µM | 65.26 |
| SEQ ID NO: 270 (RNKDVRKAVRRLIKRKCC; source 1..18: note = C-terminal domain sequence) | 0.012 µM | 145.78 |
| SEQ ID NO: 271 (RNRDLRKAVRKLFKKKCC; source 1..18: note = C-terminal domain sequence) | 0.030 µM | 56.86 |

| Compound | EC2 (concentration for 2-fold luciferase induction) | EC2 Fold-improvement vs. wild-type |
| --- | --- | --- |
| SEQ ID NO: 272 (RNRDLRKALRRIFKRRCC; source 1..18: note = C-terminal domain sequence) | 0.013 µM | 136.52 |
| SEQ ID NO: 273 (RNRDVRKAIKKLIRKRCC; source 1..18: note = C-terminal domain sequence) | 0.005 µM | 373.12 |
| SEQ ID NO: 274 (RNKELKKAIKRILKKKCC; source 1..18: note = C-terminal domain sequence) | 0.095 µM | 18.20 |
| SEQ ID NO: 275 (RNRDVRKAIRKLLKRKCC; source 1..18: note = C-terminal domain sequence) | 0.005 µM | 323.20 |
| SEQ ID NO: 276 (RNRDLRKAVRRIFKKRCC; source 1..18: note = C-terminal domain sequence) | 0.034 µM | 50.55 |
| SEQ ID NO: 277 (RNRDVRKAVRKLFKRRCC; source 1..18: note = C-terminal domain sequence) | 0.005 µM | 325.72 |
| SEQ ID NO: 278 (RNRDVRKALRRLFKKRCC; source 1..18: note = C-terminal domain sequence) | 0.003 µM | 522.64 |
| SEQ ID NO: 279 (RNKELKKALRKLIGKKCC; source 1..18: note = C-terminal domain sequence) | 0.098 µM | 17.53 |
| SEQ ID NO: 280 (RNREMRKAIKKIIKKKCC; source 1..18: note = C-terminal domain sequence) | 0.009 µM | 187.06 |
| SEQ ID NO: 281 (RNKEIKKAIKKIIKKRCC; source 1..18: note = C-terminal domain sequence) | 0.029 µM | 60.06 |
| SEQ ID NO: 282 (RNRDVKKAIRRLFRRRCC; source 1..18: note = C-terminal domain sequence) | 0.007 µM | 250.61 |
| SEQ ID NO: 283 (RNREVKKAVKKLIGKRCC; source 1..18: note = C-terminal domain sequence) | 0.013 µM | 128.83 |
| SEQ ID NO: 284 (RNREMRKALRRLFRKRCC; source 1..18: note = C-terminal domain sequence) | 0.003 µM | 545.04 |
| SEQ ID NO: 285 (RNKELKKALRRLIGRRCC; source 1..18: note = C-terminal domain sequence) | 0.042 µM | 41.00 |
| SEQ ID NO: 286 (RNRDVKKALRKLIGKRCC; source 1..18: note = C-terminal domain sequence) | 0.003 µM | 545.04 |
| SEQ ID NO: 287 (RNREVKKAVKKLIRRKCC; source 1..18: note = C-terminal domain sequence) | 0.012 µM | 144.06 |
| SEQ ID NO: 288 (RNKEVRKALKKLFGKKCC; source 1..18: note = C-terminal domain sequence) | 0.006 µM | 294.52 |
| SEQ ID NO: 289 (RNKEIRKALRRLFGKKCC; source 1..18: note = C-terminal domain sequence) | 0.014 µM | 119.65 |

same assay, conditions: changed C-term. vs wild-type

| Compound | Fold-improvement potency | Fold-improvement threshold |
| --- | --- | --- |
| C[C@]12CCC(=O)C[C@@H]1CC[C@@H]1[C@@H]2CC[C@]2(C)C=CC[C@@H]12 [Androstenone, reference compound] | 66 | 265 |

same assay, conditions: wild-type vs SEQ ID NO: 86

| Compound | activation of OR7D4 variants |
| --- | --- |
| C[C@]12CC[C@@H](O)C[C@@H]1CC[C@@H]1[C@@H]2CC[C@]2(C)C=CC[C@@H]12 [androstenol, reference compound] | can only activate the modified version of the receptor |
